From paper PMC3649970, “A Unique Spumavirus Gag N-terminal Domain with Functional Properties of Orthoretroviral Matrix and Capsid” (PLoS Pathogens, 2013)

How the values were obtained:
Details in all cases: both partners purified
[1] = target: T1, PFV-Gag-NtD (amino terminal domain of Prototypic Foamy Virus Gag, residues 1-179) (Prototypic foamy virus (PFV), UniProt P14349 1-179); experiment: ITC; ITC-200; 1 mM Env peptide in the syringe injected into 50 µM PFV-Gag-NtD in the cell; 25 mM Na-phosphate pH 6.55, 100 mM NaCl, 0.5 mM TCEP
T1 construct: source: E. coli Rosetta 2 (DE3), purified (Ni-NTA, Superdex 200 SEC); not shown: His-tag, N-terminal, kept
T1 sequence: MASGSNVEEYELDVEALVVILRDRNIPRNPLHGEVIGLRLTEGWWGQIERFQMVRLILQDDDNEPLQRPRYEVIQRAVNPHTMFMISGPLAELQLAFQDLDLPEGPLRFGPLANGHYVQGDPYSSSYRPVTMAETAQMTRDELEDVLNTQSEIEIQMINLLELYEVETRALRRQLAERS

PFV-Gag-NtD V18S = target: T2, PFV-Gag-NtD V18S (Prototypic foamy virus (PFV), UniProt P14349 1-179, V18S); experiment: AUC; sedimentation velocity of 75 µM equimolar mixtures of Gag-NtD and Env peptide, absorbance at 280 nm; bound fraction from the integrated absorbance of the 3S species in C(S)
T2 construct: Gag of Prototypic Foamy Virus, residues 1-179 (Gag-NtD) with V18S
T2 sequence (looked up): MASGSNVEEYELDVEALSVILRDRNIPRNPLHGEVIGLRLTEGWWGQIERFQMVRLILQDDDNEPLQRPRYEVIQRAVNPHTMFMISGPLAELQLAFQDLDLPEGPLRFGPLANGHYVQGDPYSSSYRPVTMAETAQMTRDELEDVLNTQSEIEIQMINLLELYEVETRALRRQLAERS

PFV-Gag-NtD N29Q = target: T3, PFV-Gag-NtD N29Q (Prototypic foamy virus (PFV), UniProt P14349 1-179, N29Q); experiment: as above
T3 construct: Gag of Prototypic Foamy Virus, residues 1-179 (Gag-NtD) with N29Q
T3 sequence (looked up): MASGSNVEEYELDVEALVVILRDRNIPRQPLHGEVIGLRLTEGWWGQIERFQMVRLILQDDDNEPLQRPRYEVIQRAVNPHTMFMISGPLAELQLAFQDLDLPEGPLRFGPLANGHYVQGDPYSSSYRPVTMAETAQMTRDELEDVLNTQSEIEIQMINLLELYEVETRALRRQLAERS

PFV-Gag-NtD V14S/V18S = target: T4, PFV-Gag-NtD V14S/V18S (Prototypic foamy virus (PFV), UniProt P14349 1-179, V14S | V18S); experiment: as above
T4 construct: Gag of Prototypic Foamy Virus, residues 1-179 (Gag-NtD) with V14S and V18S
T4 sequence (looked up): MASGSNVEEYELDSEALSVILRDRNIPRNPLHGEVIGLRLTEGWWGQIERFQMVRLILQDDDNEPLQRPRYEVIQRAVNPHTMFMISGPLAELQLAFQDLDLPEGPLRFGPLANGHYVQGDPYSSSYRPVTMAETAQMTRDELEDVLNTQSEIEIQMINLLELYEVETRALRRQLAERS

B1: PFV Env leader peptide residues 1-20 (peptide, UniProt P14351 1-20, looked up)
peptide: MAPPMTLQQWIIWKKMNKAH
notes: Envelope (Env) protein of Prototypic Foamy Virus, N-terminal leader peptide region, residues 1-20 (Met1 to His20); the text names M1, A2, P3, P4, M5, T6, L7, Q9, W10, W13, M16, A19, H20; also called Env_(1-20); Env(1-20); source: synthetic peptide, bought HPLC purified: Pepceuticals Ltd
- Ka [1]: 150000 M⁻¹
- stoichiometry N [1]: 1
- fold decrease of affinity against wt PFV-Gag-NtD (PFV-Gag-NtD V18S): 2 fold
- binding result (PFV-Gag-NtD N29Q): binds
- binding result (PFV-Gag-NtD V14S/V18S): binds
